Read-outs that look alike come from different tables or passages of the source. Where no end group is shown, it is not given here.

These results are taken from patent US20230051538A1 (UNIVERSITY OF BRITISH COLUMBIA, published 2023).

The target of assay [1] is T1, alpha-synuclein oligomers (UniProt P37840 1-140). Put plainly: cell-based or functional assay.
The next assay has as its target T2, HSA (human, UniProt P02768 25-609).
T2 construct: irrelevant antigen in ELISA; read as human serum albumin; also called Hum; SA; HAS
Put plainly: indirect ELISA. (An ELISA detects its analyte on a solid surface through an enzyme-linked reagent.)

Assay [2] addresses T3, Bovine serum albumin (BSA) (bovine, UniProt P02769 25-607).
T3 construct: carrier protein alone as ELISA control
Put plainly: indirect ELISA.

Assay [3] deals with T4, cyclo(CGTKEQGGGG), free (cyclized via a head-to-tail (C-G) amide bond).
T4 construct: free cyclic peptide, not conjugated; also called (1,4)-C-Free
T4 peptide: CGTKEQGGGG
Put plainly: indirect ELISA.

Another assay addresses T5, Human Transferrin (human, UniProt P02787 20-698).
T5 construct: irrelevant antigen in ELISA; also called HT
Put plainly: indirect ELISA.

The target of assay [4] is alpha-synuclein sonicated preformed fibrils (soluble fibrils) (human, UniProt P37840 1-140). Briefly: Millipore SMC, antibody-coated magnetic particles, detection with labeled 4D6.
The target of assay [5] is T1, alpha-synuclein oligomers. The description is as above.
In assay [6] the target is T4, cyclo(CGTKEQGGGG), free. Briefly: indirect ELISA.
In the next assay the target is T6, cyclo(CGGTKEQGGGG)-BSA (also: conjugated to BSA via maleimide-based coupling).
T6 construct: also called (2,4)-C-BSA; 2,4-C-BSA
T6 peptide: cyclo(CGGTKEQGGGG)
Briefly: indirect ELISA.

A further assay has as its target T7, cyclo(CGTKEQGGGG)-BSA (also: conjugated to BSA via maleimide-based coupling).
T7 construct: also called (1,4)-C-BSA; 1,4-C-BSA
T7 peptide: cyclo(CGTKEQGGGG)
Put plainly: indirect ELISA.

A further assay concerns the target T8, Linear CGGTKEQGG-BSA (also: conjugated to BSA).
T8 construct: linear peptide-BSA screening antigen; also called (2,2)-L-BSA; (2, 2) L-BSA
T8 peptide: CGGTKEQGG
Briefly: indirect ELISA.

The target in a further assay is T9, cyclo(CGGTKEQGG)-BSA (also: conjugated to BSA via maleimide-based coupling).
T9 construct: also called (2,2)-C-BSA; (2, 2) C-BSA
T9 peptide: cyclo(CGGTKEQGG)
Put plainly: indirect ELISA.

T3 sequence (P02769 25-607 limits assumed): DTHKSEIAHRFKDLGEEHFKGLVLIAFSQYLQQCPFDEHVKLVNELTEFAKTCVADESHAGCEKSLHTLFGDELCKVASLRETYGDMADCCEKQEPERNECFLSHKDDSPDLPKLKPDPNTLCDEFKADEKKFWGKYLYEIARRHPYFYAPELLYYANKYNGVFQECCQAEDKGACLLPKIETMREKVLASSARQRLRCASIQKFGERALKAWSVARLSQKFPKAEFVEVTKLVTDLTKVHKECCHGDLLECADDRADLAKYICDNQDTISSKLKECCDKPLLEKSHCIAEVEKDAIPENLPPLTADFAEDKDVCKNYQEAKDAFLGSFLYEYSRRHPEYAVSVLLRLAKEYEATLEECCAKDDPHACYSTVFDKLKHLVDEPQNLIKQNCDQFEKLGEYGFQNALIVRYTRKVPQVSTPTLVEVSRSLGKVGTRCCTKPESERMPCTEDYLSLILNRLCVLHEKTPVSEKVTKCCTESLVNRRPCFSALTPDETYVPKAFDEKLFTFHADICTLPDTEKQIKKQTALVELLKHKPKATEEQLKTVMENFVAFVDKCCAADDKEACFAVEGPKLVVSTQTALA
T5 sequence (P02787 20-698 limits assumed): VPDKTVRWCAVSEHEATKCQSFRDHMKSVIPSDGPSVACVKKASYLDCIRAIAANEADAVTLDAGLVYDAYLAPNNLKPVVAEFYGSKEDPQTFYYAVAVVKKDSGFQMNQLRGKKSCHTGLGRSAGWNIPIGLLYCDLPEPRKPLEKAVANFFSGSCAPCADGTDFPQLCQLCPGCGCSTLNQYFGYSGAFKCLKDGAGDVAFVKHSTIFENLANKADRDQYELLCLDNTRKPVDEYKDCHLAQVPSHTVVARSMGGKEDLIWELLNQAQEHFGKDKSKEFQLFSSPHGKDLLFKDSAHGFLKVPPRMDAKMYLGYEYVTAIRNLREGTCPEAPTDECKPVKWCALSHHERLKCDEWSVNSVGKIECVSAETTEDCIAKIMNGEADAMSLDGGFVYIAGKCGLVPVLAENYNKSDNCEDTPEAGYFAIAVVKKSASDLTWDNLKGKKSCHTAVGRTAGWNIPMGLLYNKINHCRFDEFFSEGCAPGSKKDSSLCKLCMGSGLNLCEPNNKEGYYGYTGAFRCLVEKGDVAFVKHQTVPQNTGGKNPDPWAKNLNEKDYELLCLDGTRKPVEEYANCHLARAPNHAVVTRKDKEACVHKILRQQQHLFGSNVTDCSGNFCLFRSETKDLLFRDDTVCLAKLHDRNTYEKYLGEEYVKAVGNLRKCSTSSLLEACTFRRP

B1: 10D5 (antibody, V domains shown)
VH: EVQLQQSGAELVRPGALVKLSCKGSGFNIKDYYMSWVKQRPEQGLEWIGWIDPENDNTIYDSKFQGKASITADTSSNTAYLQFSSLTPEDTAVYYCAMGGFTYWGQGTLVTVSA
VL: not shown
On to B1, for which, in assay [1], the “dopaminergic neuron survival, antibody at 250 nM” value was 88.9 % of the control. The ELISA reading with HSA was 0.065; in assay [2], 0.066; in the assay with cyclo(CGTKEQGGGG), free [3] it was 1.25; in the assay with Human Transferrin it was 0.06; with cyclo(CGTKEQGGGG), free [6], 1.25; with cyclo(CGGTKEQGGGG)-BSA it was 1.95. Moreover, the results for the ELISA reading with cyclo(CGTKEQGGGG)-BSA, in the assay with Linear CGGTKEQGG-BSA and with cyclo(CGGTKEQGG)-BSA were 2.04, 0.045 and 0.064, respectively. In addition, the “fold selectivity for fibrils versus monomers (from LLoQ)” value in [4] came to 11200 fold. Besides, the “fold selectivity for oligomers versus monomers (from LLoQ)” value in assay [5] stood at 9300 fold.
